Numbered stars: 1 amine (or outer) side, 2 acyl side, 3 side chain; on linkers, the order of the positions; unused ones are H or OH. Bridge positions count the residues as written; N and C are the ends. Side chains are listed from the residue outwards. Ends that are not written are not given here. * marks the point of attachment. C20 diacid = O=C(O)CCCCCCCCCCCCCCCCCCC(=O)*; γGlu = O=C(O)[C@H](CCC(=O)[*:2])N[*:1]; AEEA = NCCOCCOCC(=O)O

In test [1] the target is T1, rat amylin receptor (rat calcitonin receptor + rat RAMP 3) (rat, UniProt P32214 25-516; Q9JJ73 23-147).
T1 construct: whole, on cells; Membranes of BHK tk'ts 13 cells transiently transfected with the rat calcitonin receptor and rat RAMP 3; also called rAmylin-R; rat amylin 3(a) receptor
T1 sequence (looked up) 1: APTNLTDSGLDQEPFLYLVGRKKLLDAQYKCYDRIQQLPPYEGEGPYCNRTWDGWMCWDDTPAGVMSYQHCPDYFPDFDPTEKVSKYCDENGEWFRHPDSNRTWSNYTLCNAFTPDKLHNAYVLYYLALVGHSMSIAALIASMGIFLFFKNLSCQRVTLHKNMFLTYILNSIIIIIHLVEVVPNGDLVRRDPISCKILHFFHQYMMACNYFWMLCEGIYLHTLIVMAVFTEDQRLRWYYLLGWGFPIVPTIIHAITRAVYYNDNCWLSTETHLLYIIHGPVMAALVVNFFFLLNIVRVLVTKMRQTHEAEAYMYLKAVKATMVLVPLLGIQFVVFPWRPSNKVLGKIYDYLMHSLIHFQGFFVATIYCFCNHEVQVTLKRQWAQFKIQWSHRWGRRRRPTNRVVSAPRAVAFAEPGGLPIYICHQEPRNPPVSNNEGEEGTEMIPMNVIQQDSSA
T1 sequence (looked up) 2: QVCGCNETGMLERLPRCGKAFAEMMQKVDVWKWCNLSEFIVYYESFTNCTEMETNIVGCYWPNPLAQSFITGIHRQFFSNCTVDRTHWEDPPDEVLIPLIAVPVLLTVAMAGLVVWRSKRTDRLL
The test is described as follows: SPA competition vs 125I-rat amylin, membranes with rat CTR + rat RAMP3 (Assay VI).

Test [2] addresses T2, human calcitonin receptor (human, UniProt P30988 25-474).
T2 construct: whole, on cells; Membranes of a BHK tk'ts 13 cell line stably transfected with the human calcitonin receptor; also called hCTR; hCT
T2 sequence (looked up): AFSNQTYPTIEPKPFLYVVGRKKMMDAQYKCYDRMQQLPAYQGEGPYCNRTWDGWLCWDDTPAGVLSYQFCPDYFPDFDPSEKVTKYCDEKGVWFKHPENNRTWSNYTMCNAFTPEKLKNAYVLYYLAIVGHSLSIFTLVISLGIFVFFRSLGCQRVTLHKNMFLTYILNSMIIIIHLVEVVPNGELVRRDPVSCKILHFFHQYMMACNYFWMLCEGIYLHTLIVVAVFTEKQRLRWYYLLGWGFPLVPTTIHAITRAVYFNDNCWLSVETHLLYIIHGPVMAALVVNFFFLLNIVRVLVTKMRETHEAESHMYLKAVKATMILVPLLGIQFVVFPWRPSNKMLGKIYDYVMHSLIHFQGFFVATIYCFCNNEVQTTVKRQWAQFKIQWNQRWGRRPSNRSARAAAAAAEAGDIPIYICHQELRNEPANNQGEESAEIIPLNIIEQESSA
The test is described as follows: IC50 at hCTR divided by IC50 at hAmylin-R (reference). The method in brief: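 IC₅₀ values were derived by one-site competition analysis of SPA counts. Cell membranes (35 ng/μL) with SPA beads were incubated with test compounds for 120 min at 25° C in Hepes buffer, pH 7.4, containing CaCl2, MgCl₂, OA and Tween20.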

Test [3] has as its target T3, rat calcitonin receptor (rat, UniProt P32214 25-516).
T3 construct: whole, on cells; Membranes of BHK tk'ts 13 cells transiently transfected with the rat calcitonin receptor; also called rCTR; rat calcitonin (a) receptor
T3 sequence (looked up): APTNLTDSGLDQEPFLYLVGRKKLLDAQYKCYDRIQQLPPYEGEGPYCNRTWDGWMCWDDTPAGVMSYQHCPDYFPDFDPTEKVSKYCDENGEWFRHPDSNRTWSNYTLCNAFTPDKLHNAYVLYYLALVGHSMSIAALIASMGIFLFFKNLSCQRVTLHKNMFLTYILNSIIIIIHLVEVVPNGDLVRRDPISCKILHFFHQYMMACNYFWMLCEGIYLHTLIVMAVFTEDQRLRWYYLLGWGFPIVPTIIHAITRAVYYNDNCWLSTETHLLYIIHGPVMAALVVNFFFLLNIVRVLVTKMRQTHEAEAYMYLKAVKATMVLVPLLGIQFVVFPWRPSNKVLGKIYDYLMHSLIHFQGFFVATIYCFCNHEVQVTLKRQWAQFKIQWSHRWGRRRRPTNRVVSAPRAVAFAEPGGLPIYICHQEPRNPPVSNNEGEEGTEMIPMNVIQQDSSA
Nature of the test: SPA competition vs 125I-calcitonin, membranes with rat CTR (Assay VIII).

The target in test [4] is T3, rat calcitonin receptor. The test is described as follows: IC50 at rCTR divided by IC50 at rAmylin-R (reference).

B1: N^ε1-[2-[2-[2-[[(4S)-4-carboxy-4-(19-carboxynonadecanoylamino)butanoyl]amino]ethoxy]ethoxy]acetyl]-[Arg17,Pro21,Pro27,Pro31]-h-amylin (peptide)
peptide: K([AEEA-γGlu-C20 diacid])CNTATCATQRLANFLRHSSPNFGAIPSSTPVGSNTY-NH2
modifications: disulfide 2-7; N-terminus assumed
SMILES: CC[C@H](C)[C@H](NC(=O)[C@H](C)NC(=O)CNC(=O)[C@H](Cc1ccccc1)NC(=O)[C@H](CC(N)=O)NC(=O)[C@@H]1CCCN1C(=O)[C@H](CO)NC(=O)[C@H](CO)NC(=O)[C@H](Cc1c[nH]cn1)NC(=O)[C@H](CCCNC(=N)N)NC(=O)[C@H](CC(C)C)NC(=O)[C@H](Cc1ccccc1)NC(=O)[C@H](CC(N)=O)NC(=O)[C@H](C)NC(=O)[C@H](CC(C)C)NC(=O)[C@H](CCCNC(=N)N)NC(=O)[C@H](CCC(N)=O)NC(=O)[C@@H](NC(=O)[C@H](C)NC(=O)[C@@H]1CSSC[C@H](NC(=O)[C@@H](N)CCCCNC(=O)COCCOCCNC(=O)CC[C@H](NC(=O)CCCCCCCCCCCCCCCCCCC(=O)O)C(=O)O)C(=O)N[C@@H](CC(N)=O)C(=O)N[C@@H]([C@@H](C)O)C(=O)N[C@@H](C)C(=O)N[C@@H]([C@@H](C)O)C(=O)N1)[C@@H](C)O)C(=O)N1CCC[C@H]1C(=O)N[C@@H](CO)C(=O)N[C@@H](CO)C(=O)N[C@H](C(=O)N1CCC[C@H]1C(=O)N[C@H](C(=O)NCC(=O)N[C@@H](CO)C(=O)N[C@@H](CC(N)=O)C(=O)N[C@H](C(=O)N[C@@H](Cc1ccc(O)cc1)C(N)=O)[C@@H](C)O)C(C)C)[C@@H](C)O
notes: modifications are with respect to human amylin; also called compound 49
For the molecule B1, the IC50 came out at 1.08 nM in test [1] and 51.4 nM with rat calcitonin receptor [3]. Moreover, the “Ratio hCT/hAmylin binding” value in test [2] is 10.8. In the test with rat calcitonin receptor [4], the “Ratio rCT/rAmylin binding” value was found to be 47.7.

B2: N^ε1-[(4S)-4-carboxy-4-(19-carboxynonadecanoylamino)butanoyl]-[Arg17,Pro21,Pro27,Glu35]-h-amylin (peptide)
peptide: K([γGlu-C20 diacid])CNTATCATQRLANFLRHSSPNFGAIPSSTNVGSETY-NH2
modifications: disulfide 2-7; N-terminus assumed
SMILES: CC[C@H](C)[C@H](NC(=O)[C@H](C)NC(=O)CNC(=O)[C@H](Cc1ccccc1)NC(=O)[C@H](CC(N)=O)NC(=O)[C@@H]1CCCN1C(=O)[C@H](CO)NC(=O)[C@H](CO)NC(=O)[C@H](Cc1c[nH]cn1)NC(=O)[C@H](CCCNC(=N)N)NC(=O)[C@H](CC(C)C)NC(=O)[C@H](Cc1ccccc1)NC(=O)[C@H](CC(N)=O)NC(=O)[C@H](C)NC(=O)[C@H](CC(C)C)NC(=O)[C@H](CCCNC(=N)N)NC(=O)[C@H](CCC(N)=O)NC(=O)[C@@H](NC(=O)[C@H](C)NC(=O)[C@@H]1CSSC[C@H](NC(=O)[C@@H](N)CCCCNC(=O)CC[C@H](NC(=O)CCCCCCCCCCCCCCCCCCC(=O)O)C(=O)O)C(=O)N[C@@H](CC(N)=O)C(=O)N[C@@H]([C@@H](C)O)C(=O)N[C@@H](C)C(=O)N[C@@H]([C@@H](C)O)C(=O)N1)[C@@H](C)O)C(=O)N1CCC[C@H]1C(=O)N[C@@H](CO)C(=O)N[C@@H](CO)C(=O)N[C@H](C(=O)N[C@@H](CC(N)=O)C(=O)N[C@H](C(=O)NCC(=O)N[C@@H](CO)C(=O)N[C@@H](CCC(=O)O)C(=O)N[C@H](C(=O)N[C@@H](Cc1ccc(O)cc1)C(N)=O)[C@@H](C)O)C(C)C)[C@@H](C)O
notes: modifications are with respect to human amylin; also called compound 27
Take B2: the IC50 was 0.614 nM in test [1] and 90.2 nM with rat calcitonin receptor [3]. Further, the “Ratio hCT/hAmylin binding” value in test [2] was 41.3. Further, the “Ratio rCT/rAmylin binding” value in the test with rat calcitonin receptor [4] stood at 147.

The values are drawn from patent publication US20140087995A1 (published 2014).
